Reference: paper doi:10.1101/212837 (bioRxiv, 2017)

Target: human acid α-glucosidase (GAA), 123-200 fragment of the protease-treated enzyme (human, UniProt P10253 123-200)
Test: crystal structure

B1: human acid α-glucosidase (GAA), 80-115 fragment of the protease-treated enzyme (domain or fragment)
chain: not shown
B1: binds.
